One data set deals with activated platelets. Nature of the data set: Aggregometer assay. The format is cell-based.
Data set [1] deals with clot. The data set is described as follows: Gamma camera thrombus imaging in rabbits. Format: in vivo, New Zealand White rabbits. Conditions: FIG. 8. The procedure:
(§1) The specificity of uptake of Tc-99m labeled peptide […]-chelating agent A conjugate into rabbit thrombi was determined by directly comparing tissue uptake and images obtained in animals with an induced thrombus to those receiving a sham operation without induced thrombus.
Two groups of 3 rabbits were used. All animals were subjected to surgery to expose the superficial jugular vein as described in detail below. In the first group of animals, the jugular veins were clamped off and a silk thread was inserted into the jugular veins. These veins also received an injection of 10 units of bovine thrombin in 0.1 ml isotonic saline directly into the vein. […]
The peptide-chelating agent conjugate prepared as in Section 9, supra, was radiolabeled with Tc-99m as follows: Tc-99m was eluted from a molybdenum generator and adjusted to 40 mCi/ml with isotonic saline. […] After this incubation period the material was drawn into an appropriately labelled 5 ml syringe and a sample was analyzed by instant thin layer chromatography (ITLC) to determine radiochemical purity as described in Section 9, supra. This material was acceptable for injection into rabbits only if the radiochemical purity was ≥95% and the amount of radioactivity available for injection was within 20% of that required by this protocol (e.g., 4.8-7.3 mCi). […]

The test system of data set [2] is clot. The data set is described as follows: Biodistribution by dissection in rabbits with induced thrombus. Format: in vivo, New Zealand White rabbits. Conditions: for 99M Tc / % ID/G (percent of injected dose per gram of tissue) / TISS:BLD / TISS:MUSC: 4 h after injection. The procedure:
as §1
Two groups of 3 rabbits were used. All animals were subjected to surgery to expose the superficial jugular vein as described in detail below. In the first group of animals, the jugular veins were clamped off and a silk thread was inserted into the jugular veins. These veins also received an injection of 10 units of bovine thrombin in 0.1 ml isotonic saline directly into the vein. The second (sham control) group of animals was subjected to the same surgical procedures as the experimental group except that no silk was inserted into the veins of these animals and the veins received an injection of 0.1 ml isotonic saline only. Due to logistical difficulties in handling six animals at one time, the experiment was conducted in three parts, each part consisting of one sham and one thrombus-induced animal done in parallel on each of 3 days. Specific pathogen-free New Zealand White rabbits (2-2.6 kg) were used.
The model system of Collen et al. (1983, J. Clin. Invest. 71:368-376) was used (with minor modifications described below) to induce experimental thrombi in rabbits. The animals were anesthetized by intramuscular injection of 40 mg/kg ketamine-HC1 and 4 mg/kg acepromazine maleate. Just prior to surgery, the animals received 10 mg/kg sodium pentobarbital, which was also administered as needed during the course of the surgery. The neck area was shaved and swabbed with disinfectant. The jugular vein was exposed by making about a 5 cm paramedial incision, the vein was freed from tissues over about a 4 cm distance (up to the main bifurcation of the facial vein) and the side branches of the jugular were ligated. A 1-inch segment was clamped off with hemostats and, in the experimental (group 1) animals, a silk thread was placed longitudinally inside the vein and was tied off at each end. No suture was placed in the veins of sham control (group 2) animals. Ten (10) units of bovine thrombin in 0.1 ml of isotonic saline (or saline alone in sham control animals) was injected into the clamped vein segment using a 27 gauge needle. Thirty minutes later, the animals were given an intravenous injection (in the contralateral marginal ear vein) of a mixture of 2-7 μCi of Tc-99m labelled peptide-chelating agent conjugate.
The peptide-chelating agent conjugate prepared as in Section 9, supra, was radiolabeled with Tc-99m as follows: Tc-99m was eluted from a molybdenum generator and adjusted to 40 mCi/ml with isotonic saline. Fifty (50) mCi of this preparation was transferred to a Glucoscan vial (Dupont, Billerica, MA) and mixed. Six (6) mCi of Tc-99m/glucoscan mixture was then added to a vial containing 50 μg of the peptide-chelating agent conjugate and incubated for 1 h at room temperature. After this incubation period the material was drawn into an appropriately labelled 5 ml syringe and a sample was analyzed by instant thin layer chromatography (ITLC) to determine radiochemical purity as described in Section 9, supra. This material was acceptable for injection into rabbits only if the radiochemical purity was ≥95% and the amount of radioactivity available for injection was within 20% of that required by this protocol (e.g., 4.8-7.3 mCi).
All animals were dissected 4 h (240 min) after injection. A 3 ml blood sample was drawn, after which the animals were euthanized with an i.v. injection of T-61 euthanasia solution (American Hoechst, Sommerville, N.J.). The vein segment was surgically removed and the thrombus therein (if any) was isolated from the vein. A segment of the contralateral vein was also removed and a sample of muscle was obtained from an area of the neck distal to the surgical field. […]

Ends that are not written are not given here. chelating agent A = 3,5-di-(1-trimethylammoniumacetyl)-4-thiosemicarbazidobenzoic acid, dichloride salt

For “Chelating Agent A-NH-SYRGDVRGDF: chelating agent A coupled with SYRGDVRGDF-NH2 peptide ({chelating agent A}-SYRGDVRGDF-NH2)”, in the data set on activated platelets, the IC50 turned out to be 19.3 µM. Also, in the data set on activated platelets (relative to native peptide), the “clot-binding potency relative to the native peptide” value is reported as “full or even enhanced clot-binding potency”.
Turning to SYRGDVRGDF [reference compound], 28.8 µM corresponded to half-maximal inhibition in the data set on activated platelets (IC50).
With “Tc-99m-labeled SYRGDVRGDF-chelating agent A conjugate: peptide-chelating agent conjugate prepared as in Section 9, radiolabeled with Tc-99m (SYRGDVRGDF-NH2; not fully specified (N-terminus); also: chelating agent A conjugate, site not given here, Tc-99m labelled (metal complex))”, the “localization to clot in gamma camera imaging” value in the data set with clot [1] (2 hours and 4 hours) is recorded as “localization of Tc-99m-labeled SYRGDVRGDF-chelating agent A conjugate to a clot”. Further, in the data set on clot [1] (gamma camera image), the “blood pool accumulation, area of the head” value is listed as “blood pool accumulation of peptide-chelating agent A, which is non-specific”. Also, in the data set with clot [2] (Blood), the “99M Tc” value came out at 318229 and the “% ID/G (percent of injected dose per gram of tissue)” value is recorded as 0.0399 % ID/G. Further, in the data set on clot [2] (Clot (Target)), the “99M Tc” value stood at 94319, the “% ID/G (percent of injected dose per gram of tissue)” value came to 0.3312 % ID/G, the “TISS:BLD” value was 28.30 and the “TISS:MUSC” value was 27.83. In the data set on clot [2] (Muscle), the “99M Tc” value is 22369 and the “% ID/G (percent of injected dose per gram of tissue)” value worked out at 0.0119 % ID/G. In the data set with clot [2] (Vessel), the “99M Tc” value worked out at 95629, the “% ID/G (percent of injected dose per gram of tissue)” value is 0.0870 % ID/G, the “TISS:BLD” value is given as 2.18 and the “TISS:MUSC” value was 7.28. Besides, the “clot % ID/G relative to blood” value in the data set with clot [2] (clot vs blood) turned out to be 8 fold. The “clot % ID/G relative to the blood vessel” value in the data set on clot [2] (clot vs blood vessel) is on record as 4 fold. Further, in the data set on clot [2] (clot, percent of injected dose per gram of tissue), the “% ID/G for the clot” value was 0.33%.

In general, IC50 refers to the concentration needed to halve the response being measured. Low readings indicate greater potency, high ones weaker potency.

These data come from US5326856A, “Bifunctional isothiocyanate derived thiocarbonyls as ligands for metal binding” (Cytogen Corporation, priority 1992, dated 1994).
